{"source": "paper PMC6899460", "about": "“The Pseudomonas aeruginosa T6SS Delivers a Periplasmic Toxin that Disrupts Bacterial Cell Morphology” (Cell Reports, 2019)", "proteins": {"B1": {"name": "VgrG2b C-terminal domain (VgrG2bC-ter) (domain or fragment)", "chain": "VGETQRRFVLKQLDGQTAMPNVPYTITMANGEVIEGVTDAEGATQLLQKDAMNIAKVDMKHTKSPASAVAGIAAAVGAAVAVGKLLGGPDAEAGRALSEGEISLAKGVFGDSIDYSTVRLRDEDYVPWQGKDYVMAPNGHIYFGEELRGVADWSLESLQRQGLFIHEMTHVWQHQHGVNVLLVGAYQQARQFLLGDQYAYRLEPGKTLKDYNIEQQGDIVRDYFLEKNEFGEASANSRFAGVLKNFPTGY", "notes": "VgrG2b of Pseudomonas aeruginosa PAO1, C-terminal domain, residues 770-1,019; Monomeric and dimeric species were both found in solution; also called VgrG2b metallopeptidase domain; source: E. coli BL21 (λDE3) pET28a-vgrG2bC-ter, purified (Ni2+-NTA, SEC); not shown: His6, C-terminal, cleaved"}}, "biological_target": "the molecule itself", "experiment": "SEC-MALS; SEC-MALLS and refractometry; Superdex 75 10/30 column, 20°C, 0.5 ml/min; fractions pooled from two peaks obtained after preparatory size-exclusion chromatography; dimer and monomer"}
{"protein": "B1", "values": [{"measurement": "stoichiometry N", "result": 2}]}
